From PMC9482650, “Quantitative fragmentomics allow affinity mapping of interactomes” (Nature Communications, 2022)
Residue numbers refer to the chain shown, from its start.

T1: DFNB31_1, Q9P202
T1 sequence (Q9P202 135-233, limits assumed, looked up): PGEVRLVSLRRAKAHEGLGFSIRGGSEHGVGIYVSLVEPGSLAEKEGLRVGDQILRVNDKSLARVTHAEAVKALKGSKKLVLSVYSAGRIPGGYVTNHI

T2: FRMPD1, Q5SYB0
T2 sequence (Q5SYB0 52-145, limits assumed, looked up): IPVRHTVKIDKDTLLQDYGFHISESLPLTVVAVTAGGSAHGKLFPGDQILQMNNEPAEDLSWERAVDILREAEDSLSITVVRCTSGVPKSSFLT

T3: LIN7A, O14910
T3 sequence (O14910 103-200, limits assumed, looked up): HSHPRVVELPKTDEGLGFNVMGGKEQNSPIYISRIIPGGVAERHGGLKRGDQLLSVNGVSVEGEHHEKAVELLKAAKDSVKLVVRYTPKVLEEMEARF

T4: LIN7B, Q9HAP6
T4 sequence (Q9HAP6 88-185, limits assumed, looked up): T3 sequence (O14910 103-200, limits assumed, looked up) with S2A, V20I, I35V, E42D, H65Q, K77Q, D78G, K89R

T5: LNX2_2, Q8N448
T5 sequence (Q8N448 334-432, limits assumed, looked up): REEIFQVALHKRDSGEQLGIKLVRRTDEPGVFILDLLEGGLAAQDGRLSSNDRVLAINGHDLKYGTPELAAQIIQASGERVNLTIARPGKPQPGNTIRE

T6: MPDZ_10, O75970
T6 sequence (O75970 1624-1722, limits assumed, looked up): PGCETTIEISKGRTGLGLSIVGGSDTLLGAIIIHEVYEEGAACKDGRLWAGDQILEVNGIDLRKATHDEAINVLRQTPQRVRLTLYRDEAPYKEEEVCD

T7: NHERF3_4, Q5T2W1
T7 sequence (Q5T2W1 373-468, limits assumed, looked up): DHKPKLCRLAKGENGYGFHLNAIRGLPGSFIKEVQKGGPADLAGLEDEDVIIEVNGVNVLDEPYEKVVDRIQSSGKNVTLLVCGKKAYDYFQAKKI

T8: PDZD7_3, Q9H5P4
T8 sequence (Q9H5P4 857-944, limits assumed, looked up): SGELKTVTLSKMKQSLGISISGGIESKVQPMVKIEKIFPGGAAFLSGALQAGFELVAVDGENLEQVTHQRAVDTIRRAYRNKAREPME

T9: PDZRN3_1, Q9UPQ7
T9 sequence (Q9UPQ7 244-349, limits assumed, looked up): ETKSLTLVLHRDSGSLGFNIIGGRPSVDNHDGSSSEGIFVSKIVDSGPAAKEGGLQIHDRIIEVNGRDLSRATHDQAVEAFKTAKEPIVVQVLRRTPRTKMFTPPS

T10: RAPGEF6, Q8TEU7
T10 sequence (Q8TEU7 525-625, limits assumed, looked up): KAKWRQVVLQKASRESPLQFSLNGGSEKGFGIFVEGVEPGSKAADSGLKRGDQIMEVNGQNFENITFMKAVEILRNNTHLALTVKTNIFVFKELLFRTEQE

T11: SIPA1L2, Q9P2F8
T11 sequence (Q9P2F8 945-1036, limits assumed, looked up): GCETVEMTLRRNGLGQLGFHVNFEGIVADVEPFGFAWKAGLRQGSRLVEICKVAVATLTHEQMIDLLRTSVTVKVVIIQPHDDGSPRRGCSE

T12: SYNJ2BP, P57105
T12 sequence (P57105 8-110, limits assumed, looked up): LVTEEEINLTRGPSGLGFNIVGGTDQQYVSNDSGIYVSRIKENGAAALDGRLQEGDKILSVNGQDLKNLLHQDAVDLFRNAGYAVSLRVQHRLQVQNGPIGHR

T13: TIAM2, Q8IVF5
T13 sequence (Q8IVF5 885-986, limits assumed, looked up): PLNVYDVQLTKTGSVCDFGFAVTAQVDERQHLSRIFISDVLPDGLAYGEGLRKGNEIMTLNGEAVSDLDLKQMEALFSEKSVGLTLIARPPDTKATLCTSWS


Target: T1, DFNB31_1, Q9P202
Assay: holdup assay
Parameters: key: below the threshold = too weak to quantify, mostly under pKd 3.1 to 4
Settings: plain residues with an end cap or a label only (N-terminal biotin on a linker: ado-ado)

Binder	pKd
RQSILFSTEV [BCR, P11274]	4.27
SRPTKGPTLL [PLEKHH2, Q8IVE3]	below the threshold
LTAQEQPVYI [APBA1, Q02410]	below the threshold

Target: DLG1_2, Q12959
Sequence (Q12959 314-412): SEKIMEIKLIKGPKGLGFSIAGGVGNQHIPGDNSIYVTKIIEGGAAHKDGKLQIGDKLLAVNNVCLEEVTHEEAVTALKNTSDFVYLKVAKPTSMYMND
Assay: holdup assay
Parameters: key: below the threshold = too weak to quantify, mostly under pKd 3.1 to 4
Settings: plain residues with an end cap or a label only (N-terminal biotin on a linker: ado-ado)

Binder	pKd
RQSILFSTEV [BCR, P11274]	4.85
SRPTKGPTLL [PLEKHH2, Q8IVE3]	3.82
LTAQEQPVYI [APBA1, Q02410]	below the threshold

Target: DLG4_2, P78352
Sequence (P78352 155-259): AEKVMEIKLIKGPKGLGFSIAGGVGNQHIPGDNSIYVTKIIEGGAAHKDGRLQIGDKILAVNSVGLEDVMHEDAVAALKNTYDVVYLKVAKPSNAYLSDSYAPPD
Assay: holdup assay
Parameters: key: below the threshold = too weak to quantify, mostly under pKd 3.1 to 4
Settings: plain residues with an end cap or a label only (N-terminal biotin on a linker: ado-ado)

Binder	pKd
RQSILFSTEV [BCR, P11274]	4.81
SRPTKGPTLL [PLEKHH2, Q8IVE3]	3.7
LTAQEQPVYI [APBA1, Q02410]	below the threshold

Target: T2, FRMPD1, Q5SYB0
Assay: holdup assay
Parameters: key: below the threshold = too weak to quantify, mostly under pKd 3.1 to 4
Settings: plain residues with an end cap or a label only (N-terminal biotin on a linker: ado-ado)

Binder	pKd
RQSILFSTEV [BCR, P11274]	below the threshold
SRPTKGPTLL [PLEKHH2, Q8IVE3]	below the threshold
LTAQEQPVYI [APBA1, Q02410]	below the threshold

Target: FRMPD2_2, Q68DX3
Sequence (Q68DX3 944-1038): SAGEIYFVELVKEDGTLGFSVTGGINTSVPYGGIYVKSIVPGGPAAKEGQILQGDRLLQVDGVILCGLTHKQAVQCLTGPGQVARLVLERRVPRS
Assay: holdup assay
Parameters: key: below the threshold = too weak to quantify, mostly under pKd 3.1 to 4
Settings: plain residues with an end cap or a label only (N-terminal biotin on a linker: ado-ado)

Binder	pKd
RQSILFSTEV [BCR, P11274]	4.12
SRPTKGPTLL [PLEKHH2, Q8IVE3]	below the threshold
LTAQEQPVYI [APBA1, Q02410]	below the threshold

Target: FRMPD3, Q5JV73
Sequence (Q5JV73 12-100): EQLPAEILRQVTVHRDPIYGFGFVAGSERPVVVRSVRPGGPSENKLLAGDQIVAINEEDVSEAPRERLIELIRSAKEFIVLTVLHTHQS
Assay: holdup assay
Parameters: key: below the threshold = too weak to quantify, mostly under pKd 3.1 to 4
Settings: plain residues with an end cap or a label only (N-terminal biotin on a linker: ado-ado)

Binder	pKd
RQSILFSTEV [BCR, P11274]	below the threshold
SRPTKGPTLL [PLEKHH2, Q8IVE3]	below the threshold
LTAQEQPVYI [APBA1, Q02410]	below the threshold

Target: HTRA1, Q92743
Sequence (Q92743 360-477): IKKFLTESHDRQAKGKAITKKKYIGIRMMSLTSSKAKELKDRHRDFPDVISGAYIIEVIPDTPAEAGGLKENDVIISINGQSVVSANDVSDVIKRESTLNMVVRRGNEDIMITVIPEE
Assay: holdup assay
Parameters: key: below the threshold = too weak to quantify, mostly under pKd 3.1 to 4
Settings: plain residues with an end cap or a label only (N-terminal biotin on a linker: ado-ado)

Binder	pKd
RQSILFSTEV [BCR, P11274]	4.47
SRPTKGPTLL [PLEKHH2, Q8IVE3]	4.16
LTAQEQPVYI [APBA1, Q02410]	5.07

Target: Inadl_3, Q8NI35
Sequence (Q8NI35 359-469): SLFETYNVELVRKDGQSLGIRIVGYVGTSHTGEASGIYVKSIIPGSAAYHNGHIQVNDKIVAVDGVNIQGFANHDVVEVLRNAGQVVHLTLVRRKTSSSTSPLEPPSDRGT
Assay: holdup assay
Parameters: key: below the threshold = too weak to quantify, mostly under pKd 3.1 to 4
Settings: plain residues with an end cap or a label only (N-terminal biotin on a linker: ado-ado)

Binder	pKd
RQSILFSTEV [BCR, P11274]	4.66
SRPTKGPTLL [PLEKHH2, Q8IVE3]	below the threshold
LTAQEQPVYI [APBA1, Q02410]	below the threshold

Target: T3, LIN7A, O14910
Assay: holdup assay
Parameters: key: below the threshold = too weak to quantify, mostly under pKd 3.1 to 4
Settings: plain residues with an end cap or a label only (N-terminal biotin on a linker: ado-ado)

Binder	pKd
RQSILFSTEV [BCR, P11274]	3.66
SRPTKGPTLL [PLEKHH2, Q8IVE3]	below the threshold
LTAQEQPVYI [APBA1, Q02410]	below the threshold

Target: T4, LIN7B, Q9HAP6
Assay: holdup assay
Parameters: key: below the threshold = too weak to quantify, mostly under pKd 3.1 to 4
Settings: plain residues with an end cap or a label only (N-terminal biotin on a linker: ado-ado)

Binder	pKd
RQSILFSTEV [BCR, P11274]	below the threshold
SRPTKGPTLL [PLEKHH2, Q8IVE3]	below the threshold
LTAQEQPVYI [APBA1, Q02410]	3.66

Target: LNX1_2, Q8TBB1
Sequence (Q8TBB1 371-470): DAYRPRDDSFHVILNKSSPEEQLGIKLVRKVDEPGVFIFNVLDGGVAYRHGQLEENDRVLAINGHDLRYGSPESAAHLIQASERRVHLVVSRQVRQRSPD
Assay: holdup assay
Parameters: key: below the threshold = too weak to quantify, mostly under pKd 3.1 to 4
Settings: plain residues with an end cap or a label only (N-terminal biotin on a linker: ado-ado)

Binder	pKd
RQSILFSTEV [BCR, P11274]	3.74
SRPTKGPTLL [PLEKHH2, Q8IVE3]	below the threshold
LTAQEQPVYI [APBA1, Q02410]	below the threshold

Target: T5, LNX2_2, Q8N448
Assay: holdup assay
Parameters: key: below the threshold = too weak to quantify, mostly under pKd 3.1 to 4
Settings: plain residues with an end cap or a label only (N-terminal biotin on a linker: ado-ado)

Binder	pKd
RQSILFSTEV [BCR, P11274]	4.71
SRPTKGPTLL [PLEKHH2, Q8IVE3]	below the threshold
LTAQEQPVYI [APBA1, Q02410]	4.9

Target: MAST2, Q6P0Q8
Sequence (Q6P0Q8 1099-1202): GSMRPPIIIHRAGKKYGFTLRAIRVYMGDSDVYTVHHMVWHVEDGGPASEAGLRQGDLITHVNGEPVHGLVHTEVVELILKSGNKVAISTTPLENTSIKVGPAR
Assay: holdup assay
Parameters: key: below the threshold = too weak to quantify, mostly under pKd 3.1 to 4
Settings: plain residues with an end cap or a label only (N-terminal biotin on a linker: ado-ado)

Binder	pKd
RQSILFSTEV [BCR, P11274]	5.4
SRPTKGPTLL [PLEKHH2, Q8IVE3]	5.06
LTAQEQPVYI [APBA1, Q02410]	below the threshold

Target: T6, MPDZ_10, O75970
Assay: holdup assay
Parameters: key: below the threshold = too weak to quantify, mostly under pKd 3.1 to 4
Settings: plain residues with an end cap or a label only (N-terminal biotin on a linker: ado-ado)

Binder	pKd
RQSILFSTEV [BCR, P11274]	3.62
SRPTKGPTLL [PLEKHH2, Q8IVE3]	below the threshold
LTAQEQPVYI [APBA1, Q02410]	below the threshold

Target: T7, NHERF3_4, Q5T2W1
Assay: holdup assay
Parameters: key: below the threshold = too weak to quantify, mostly under pKd 3.1 to 4
Settings: plain residues with an end cap or a label only (N-terminal biotin on a linker: ado-ado)

Binder	pKd
RQSILFSTEV [BCR, P11274]	4.37
SRPTKGPTLL [PLEKHH2, Q8IVE3]	3.65
LTAQEQPVYI [APBA1, Q02410]	below the threshold

Target: T8, PDZD7_3, Q9H5P4
Assay: holdup assay
Parameters: key: below the threshold = too weak to quantify, mostly under pKd 3.1 to 4
Settings: plain residues with an end cap or a label only (N-terminal biotin on a linker: ado-ado)

Binder	pKd
RQSILFSTEV [BCR, P11274]	4.85
SRPTKGPTLL [PLEKHH2, Q8IVE3]	4.78
LTAQEQPVYI [APBA1, Q02410]	below the threshold

Target: T9, PDZRN3_1, Q9UPQ7
Assay: holdup assay
Parameters: key: below the threshold = too weak to quantify, mostly under pKd 3.1 to 4
Settings: plain residues with an end cap or a label only (N-terminal biotin on a linker: ado-ado)

Binder	pKd
RQSILFSTEV [BCR, P11274]	4.03
SRPTKGPTLL [PLEKHH2, Q8IVE3]	3.69
LTAQEQPVYI [APBA1, Q02410]	below the threshold

Target: PTPN3, P26045
Sequence (P26045 505-587): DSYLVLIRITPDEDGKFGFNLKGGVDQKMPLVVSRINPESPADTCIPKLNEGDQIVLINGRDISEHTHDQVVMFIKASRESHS
Assay: holdup assay
Parameters: key: below the threshold = too weak to quantify, mostly under pKd 3.1 to 4
Settings: plain residues with an end cap or a label only (N-terminal biotin on a linker: ado-ado)

Binder	pKd
RQSILFSTEV [BCR, P11274]	4.59
SRPTKGPTLL [PLEKHH2, Q8IVE3]	4.02
LTAQEQPVYI [APBA1, Q02410]	3.61

Target: T10, RAPGEF6, Q8TEU7
Assay: holdup assay
Parameters: key: below the threshold = too weak to quantify, mostly under pKd 3.1 to 4
Settings: plain residues with an end cap or a label only (N-terminal biotin on a linker: ado-ado)

Binder	pKd
RQSILFSTEV [BCR, P11274]	below the threshold
SRPTKGPTLL [PLEKHH2, Q8IVE3]	below the threshold
LTAQEQPVYI [APBA1, Q02410]	below the threshold

Target: SCRIB_2, Q14160
Sequence (Q14160 857-960): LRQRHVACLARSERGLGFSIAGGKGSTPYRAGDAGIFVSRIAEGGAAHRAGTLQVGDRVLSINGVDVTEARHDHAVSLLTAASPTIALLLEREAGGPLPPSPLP
Assay: holdup assay
Parameters: key: below the threshold = too weak to quantify, mostly under pKd 3.1 to 4
Settings: plain residues with an end cap or a label only (N-terminal biotin on a linker: ado-ado)

Binder	pKd
RQSILFSTEV [BCR, P11274]	4.54
SRPTKGPTLL [PLEKHH2, Q8IVE3]	below the threshold
LTAQEQPVYI [APBA1, Q02410]	below the threshold

Target: T11, SIPA1L2, Q9P2F8
Assay: holdup assay
Parameters: key: below the threshold = too weak to quantify, mostly under pKd 3.1 to 4
Settings: plain residues with an end cap or a label only (N-terminal biotin on a linker: ado-ado)

Binder	pKd
RQSILFSTEV [BCR, P11274]	below the threshold
SRPTKGPTLL [PLEKHH2, Q8IVE3]	below the threshold
LTAQEQPVYI [APBA1, Q02410]	below the threshold

Target: SNX27, Q96L92
Assay: holdup assay
Parameters: key: below the threshold = too weak to quantify, mostly under pKd 3.1 to 4
Settings: plain residues with an end cap or a label only (N-terminal biotin on a linker: ado-ado)

Binder	pKd
RQSILFSTEV [BCR, P11274]	4.89
SRPTKGPTLL [PLEKHH2, Q8IVE3]	3.76
LTAQEQPVYI [APBA1, Q02410]	below the threshold

Target: T12, SYNJ2BP, P57105
Assay: holdup assay
Parameters: key: below the threshold = too weak to quantify, mostly under pKd 3.1 to 4
Settings: plain residues with an end cap or a label only (N-terminal biotin on a linker: ado-ado)

Binder	pKd
RQSILFSTEV [BCR, P11274]	5.28
SRPTKGPTLL [PLEKHH2, Q8IVE3]	below the threshold
LTAQEQPVYI [APBA1, Q02410]	below the threshold

Target: T13, TIAM2, Q8IVF5
Assay: holdup assay
Parameters: key: below the threshold = too weak to quantify, mostly under pKd 3.1 to 4
Settings: plain residues with an end cap or a label only (N-terminal biotin on a linker: ado-ado)

Binder	pKd
RQSILFSTEV [BCR, P11274]	below the threshold
SRPTKGPTLL [PLEKHH2, Q8IVE3]	below the threshold
LTAQEQPVYI [APBA1, Q02410]	4.01
